Article PMC7758071, “Calcium depletion challenges endoplasmic reticulum proteostasis by destabilising BiP-substrate complexes” (eLife, 2020)
“And” between values parts separate entries of the source, which are not always exact repeats. Equal values may be shown once. Ends that are not written are not given here. * marks the point of attachment. Biotin = O=C1N[C@H]2[C@H](CS[C@H]2CCCCC(=O)*)N1

Assays:
[1] = target: T1, DnaK from Escherichia coli (UK2243) (Escherichia coli, UniProt P0A6Y8 1-638); test: BLI; as a14, but dissociation with Mg + Ca + ATP + ADP; settings: both partners purified
T1 construct: DnaK, the Hsp70 of Escherichia coli; also called bacterial DnaK; source: E. coli BL21 T7 Express lysY/Iq, purified (Ni-NTA, Ulp1 cleavage, anion exchange, second Ni-NTA); not shown: His6-Smt3, N-terminal, cleaved
T1 sequence (P0A6Y8 whole entry): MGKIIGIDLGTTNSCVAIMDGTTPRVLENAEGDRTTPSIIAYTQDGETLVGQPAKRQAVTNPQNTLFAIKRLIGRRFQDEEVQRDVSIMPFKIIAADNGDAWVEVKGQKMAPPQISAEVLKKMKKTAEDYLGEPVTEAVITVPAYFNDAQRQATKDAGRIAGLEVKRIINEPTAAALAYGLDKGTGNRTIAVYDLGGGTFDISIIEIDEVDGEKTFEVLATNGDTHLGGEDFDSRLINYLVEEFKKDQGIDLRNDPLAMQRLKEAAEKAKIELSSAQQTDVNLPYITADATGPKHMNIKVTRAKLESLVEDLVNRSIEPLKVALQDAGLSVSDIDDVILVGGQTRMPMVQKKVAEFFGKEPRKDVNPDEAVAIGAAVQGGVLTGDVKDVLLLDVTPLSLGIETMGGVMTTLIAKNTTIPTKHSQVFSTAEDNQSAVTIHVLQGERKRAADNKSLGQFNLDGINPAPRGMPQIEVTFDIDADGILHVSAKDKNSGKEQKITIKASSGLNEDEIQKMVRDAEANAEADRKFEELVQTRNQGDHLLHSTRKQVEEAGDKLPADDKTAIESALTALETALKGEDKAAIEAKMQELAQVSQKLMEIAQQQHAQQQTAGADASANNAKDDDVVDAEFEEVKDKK

[2] = target: T2, BiP (Chinese hamster, wild type, UK173) (Chinese hamster, UniProt G3I8R9 19-654); test: BLI; as a1, association with Mg + ATP; dissociation with Mg + ADP; settings: both partners purified
T2 construct: BiP (Grp78), the ER Hsp70 chaperone, Chinese hamster (Cricetulus griseus), wild type; called full-length BiP in the results; also called Grp78; mammalian BiP; source: E. coli M15, purified (Ni-NTA)
T2 sequence (G3I8R9 19-654): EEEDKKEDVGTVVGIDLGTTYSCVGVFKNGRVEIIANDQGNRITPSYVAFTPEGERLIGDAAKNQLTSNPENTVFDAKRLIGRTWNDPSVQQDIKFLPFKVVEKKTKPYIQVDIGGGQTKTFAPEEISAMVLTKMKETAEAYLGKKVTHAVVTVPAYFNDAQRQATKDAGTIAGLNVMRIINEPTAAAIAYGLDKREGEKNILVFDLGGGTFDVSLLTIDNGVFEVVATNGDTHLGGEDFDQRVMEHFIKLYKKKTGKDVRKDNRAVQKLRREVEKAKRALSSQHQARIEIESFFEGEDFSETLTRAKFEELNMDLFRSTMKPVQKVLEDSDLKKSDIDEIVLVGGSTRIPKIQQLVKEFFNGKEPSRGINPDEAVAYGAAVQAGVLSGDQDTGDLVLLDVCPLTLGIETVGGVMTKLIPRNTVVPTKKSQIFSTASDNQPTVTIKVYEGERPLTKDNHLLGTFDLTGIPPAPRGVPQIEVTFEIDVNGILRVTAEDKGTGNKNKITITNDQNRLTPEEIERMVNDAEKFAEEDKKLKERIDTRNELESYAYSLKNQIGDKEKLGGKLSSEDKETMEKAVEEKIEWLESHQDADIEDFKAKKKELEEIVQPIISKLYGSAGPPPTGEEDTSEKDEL

[3] = target: T2, BiP (Chinese hamster, wild type, UK173); test: BLI; as a1, association with Mg + ATP; dissociation (step 1) with Ca + ADP; settings: both partners purified
[4] = target: T2, BiP (Chinese hamster, wild type, UK173); test: BLI; as a7, but dissociation with Mg + Ca + ATP + ADP ([MgCl2]/[CaCl2]=3; [ATP]/[ADP]=2); settings: both partners purified
[5] = target: T2, BiP (Chinese hamster, wild type, UK173); test: BLI; as a7, dissociation with Mg + ATP + ADP and Grp170 present in the dissociation step; settings: both partners purified
[6] = target: T2, BiP (Chinese hamster, wild type, UK173); test: BLI; as a7, but dissociation with Mg + Ca + ATP + ADP ([MgCl2]/[CaCl2]=3; [ATP]/[ADP]=2); settings: both partners purified; remark: listed apart in the source
[7] = target: T3, BiP from Drosophila melanogaster (UK2354) (Drosophila melanogaster, UniProt P29844 19-656); test: as above; settings: both partners purified
T3 construct: BiP homologue of Drosophila melanogaster; the ER signal peptide is probably absent from the bacterial construct; also called dBiP; Drosophila BiP; source: E. coli BL21 T7 Express lysY/Iq, purified (Ni-NTA, Ulp1 cleavage, anion exchange); not shown: His6-Smt3, N-terminal, cleaved
T3 sequence (P29844 19-656): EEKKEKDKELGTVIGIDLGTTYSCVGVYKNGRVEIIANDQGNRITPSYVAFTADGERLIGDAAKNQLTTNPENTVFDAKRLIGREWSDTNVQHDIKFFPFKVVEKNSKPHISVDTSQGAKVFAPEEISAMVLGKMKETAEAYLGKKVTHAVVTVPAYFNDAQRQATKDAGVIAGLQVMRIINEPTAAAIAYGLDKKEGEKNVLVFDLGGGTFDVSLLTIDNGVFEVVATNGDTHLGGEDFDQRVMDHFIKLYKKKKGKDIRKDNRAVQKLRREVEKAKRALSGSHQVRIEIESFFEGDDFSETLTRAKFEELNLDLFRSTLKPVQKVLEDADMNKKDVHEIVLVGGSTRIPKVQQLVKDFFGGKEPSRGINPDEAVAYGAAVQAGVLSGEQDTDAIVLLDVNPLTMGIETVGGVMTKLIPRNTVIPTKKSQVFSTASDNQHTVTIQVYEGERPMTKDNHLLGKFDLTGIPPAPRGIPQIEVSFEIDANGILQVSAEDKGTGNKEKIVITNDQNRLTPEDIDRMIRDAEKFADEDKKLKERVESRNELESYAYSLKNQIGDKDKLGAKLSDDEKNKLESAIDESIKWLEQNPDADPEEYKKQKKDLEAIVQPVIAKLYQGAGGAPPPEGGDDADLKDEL

[8] = target: T4, human cytosolic Hsp70 (HSPA1A; UK2510; natural variant E110D) (human, UniProt P0DMV8 1-641, E110D); test: as above; settings: both partners purified
T4 construct: human cytosolic Hsp70 (HSPA1A), natural variant E110D; source: E. coli BL21 T7 Express lysY/Iq, purified (Ni-NTA, Ulp1 cleavage, anion exchange); not shown: His6-Smt3, N-terminal, cleaved
T4 sequence (P0DMV8 whole entry E110D): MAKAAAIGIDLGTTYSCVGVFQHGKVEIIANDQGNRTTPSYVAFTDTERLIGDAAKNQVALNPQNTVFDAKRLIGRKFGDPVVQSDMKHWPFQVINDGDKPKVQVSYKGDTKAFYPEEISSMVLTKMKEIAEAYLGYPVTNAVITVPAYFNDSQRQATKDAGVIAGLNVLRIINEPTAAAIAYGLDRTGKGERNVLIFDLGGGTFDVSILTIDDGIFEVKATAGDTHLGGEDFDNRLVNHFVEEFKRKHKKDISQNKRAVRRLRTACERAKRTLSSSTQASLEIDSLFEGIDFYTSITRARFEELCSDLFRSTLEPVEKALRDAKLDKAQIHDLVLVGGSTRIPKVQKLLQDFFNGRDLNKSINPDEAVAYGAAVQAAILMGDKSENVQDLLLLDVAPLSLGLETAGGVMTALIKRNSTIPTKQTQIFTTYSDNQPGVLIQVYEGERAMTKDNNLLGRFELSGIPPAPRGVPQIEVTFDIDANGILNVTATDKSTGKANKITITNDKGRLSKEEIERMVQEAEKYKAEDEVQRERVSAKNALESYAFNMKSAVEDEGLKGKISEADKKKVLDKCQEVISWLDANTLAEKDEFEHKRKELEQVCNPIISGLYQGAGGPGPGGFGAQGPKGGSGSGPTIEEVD

[9] = target: T5, human Hsc70 (HSPA8; UK2511) (human, UniProt P11142 1-646); test: as above; settings: both partners purified
T5 construct: human cytosolic Hsc70 (HSPA8); source: E. coli BL21 T7 Express lysY/Iq, purified (Ni-NTA, Ulp1 cleavage, anion exchange); not shown: His6-Smt3, N-terminal, cleaved
T5 sequence (P11142 whole entry): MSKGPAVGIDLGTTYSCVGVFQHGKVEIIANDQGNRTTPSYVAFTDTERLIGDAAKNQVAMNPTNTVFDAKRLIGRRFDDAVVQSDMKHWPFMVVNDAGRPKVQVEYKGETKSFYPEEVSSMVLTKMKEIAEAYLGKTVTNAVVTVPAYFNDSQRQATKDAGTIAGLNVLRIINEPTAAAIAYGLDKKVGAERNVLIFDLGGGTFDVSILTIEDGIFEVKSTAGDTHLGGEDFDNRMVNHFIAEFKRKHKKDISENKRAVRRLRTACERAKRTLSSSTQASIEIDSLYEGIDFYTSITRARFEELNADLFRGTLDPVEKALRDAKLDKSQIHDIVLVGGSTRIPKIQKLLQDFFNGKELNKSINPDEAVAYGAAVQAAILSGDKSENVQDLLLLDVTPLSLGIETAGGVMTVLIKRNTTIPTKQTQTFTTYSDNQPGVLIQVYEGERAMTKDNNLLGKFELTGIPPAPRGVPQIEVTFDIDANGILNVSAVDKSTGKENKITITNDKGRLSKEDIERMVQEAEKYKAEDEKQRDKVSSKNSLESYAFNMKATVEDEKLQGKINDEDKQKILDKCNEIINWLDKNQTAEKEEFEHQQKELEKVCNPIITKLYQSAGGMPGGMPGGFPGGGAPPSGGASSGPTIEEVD

[10] = target: T2, BiP (Chinese hamster, wild type, UK173); test: as above; settings: both partners purified; remark: listed apart in the source
[11] = target: T2, BiP (Chinese hamster, wild type, UK173); test: BLI; as a1, association with Mg + ATP; dissociation with Mg + Ca + ATP ([MgCl2]/[CaCl2]=3); settings: both partners purified
[12] = target: T2, BiP (Chinese hamster, wild type, UK173); test: BLI; as a8, dissociation with Mg + Ca + ATP + ADP and Grp170 present in the dissociation step; settings: both partners purified
[13] = target: T2, BiP (Chinese hamster, wild type, UK173); test: BLI; as a1, but association with Mg + Ca + ATP ([MgCl2]/[CaCl2]=3); dissociation with Mg + ATP; settings: both partners purified
[14] = target: T2, BiP (Chinese hamster, wild type, UK173); test: BLI; as a1, association with Mg + ATP; dissociation with Ca + ATP (Ca2+ the only divalent cation); settings: both partners purified
[15] = target: T2, BiP (Chinese hamster, wild type, UK173); test: BLI; as a1, but the non-functional H422Q J-domain (J^QPD) co-immobilised with P15; association with Mg + ATP; dissociation with Mg + ATP; settings: both partners purified
[16] = target: T2, BiP (Chinese hamster, wild type, UK173); test: as above; settings: both partners purified; remark: listed apart in the source
[17] = target: T2, BiP (Chinese hamster, wild type, UK173); test: BLI; as a1, association with Mg + ATP; first dissociation step with Ca + ADP, then second dissociation step (the one fitted) with Mg + ATP; settings: both partners purified
[18] = target: T2, BiP (Chinese hamster, wild type, UK173); test: BLI; as a1, association with Mg + ATP; first dissociation step with Mg + ADP, then second dissociation step (the one fitted) with Mg + ATP; settings: both partners purified
[19] = target: T2, BiP (Chinese hamster, wild type, UK173); test: BLI; streptavidin sensor with biotinylated ERdj6 J-domain (J) and biotinylated P15 co-immobilised; association: 5 µM BiP, MgCl2 + ATP; dissociation in protein-free solution with Mg + ATP; 28°C; 50 mM HEPES-KOH pH 7.4, 100 mM KCl, 0.2 mM TCEP, 0.05% Triton X-100; one-phase decay fit; settings: both partners purified
[20] = target: T2, BiP (Chinese hamster, wild type, UK173); test: BLI; streptavidin sensor with biotinylated ERdj6 J-domain (J) and biotinylated P15 co-immobilised; association: 5 µM Hsp70, 3 mM MgCl2, 1.5 mM ATP; dissociation in protein-free solution with Mg + ATP + ADP ([ATP]/[ADP]=2); 28°C; 50 mM HEPES-KOH pH 7.4, 100 mM KCl, 0.2 mM TCEP, 0.05% Triton X-100; one-phase decay fit; settings: both partners purified
[21] = target: T2, BiP (Chinese hamster, wild type, UK173); test: as above; settings: both partners purified; remark: listed apart in the source
[22] = target: T3, BiP from Drosophila melanogaster …; test: as above; settings: both partners purified
[23] = target: T4, human cytosolic Hsp70 (HSPA1A; UK2510; …); test: as above; settings: both partners purified
[24] = target: T5, human Hsc70 (HSPA8; UK2511); test: as above; settings: both partners purified
[25] = target: T2, BiP (Chinese hamster, wild type, UK173); test: as above; settings: both partners purified; remark: listed apart in the source
[26] = target: T1, DnaK from Escherichia coli (UK2243); test: BLI; streptavidin sensor with biotinylated J-domain of E. coli DnaJ (residues 1-72) and biotinylated P15 co-immobilised; association: 5 µM DnaK, 3 mM MgCl2, 1.5 mM ATP; dissociation in protein-free solution with Mg + ATP + ADP ([ATP]/[ADP]=2); 28°C; 50 mM HEPES-KOH pH 7.4, 100 mM KCl, 0.2 mM TCEP, 0.05% Triton X-100; one-phase decay fit; settings: both partners purified
[27] = target: the molecule itself; test: crystal structure; BiP^T229A-V461F (28-549) at 150 µM with equimolar FICD^L258D-H363A and 175 µM ATP (FICD excluded from the crystals); apo: 20% PEG3350, 0.1 M Bis-Tris Propane pH 7.5, 0.2 M Na3Citrate; ADP-bound: 20% PEG3350, 0.2 M K3Citrate

B1: P15 BiP substrate peptide (peptide)
peptide: ALLLSAPRRGAGKK(Biotin)
notes: substrate peptide P15 (Misselwitz et al., 1998); Held on streptavidin BLI sensors together with a biotinylated J-domain (ERdj6 residues 390-455, wild type or H422Q; for DnaK the J-domain of DnaJ, residues 1-72); source: synthetic peptide (custom synthesis, GenScript)
- koff [1]: 0.00636 s⁻¹ and 0.00686 s⁻¹ and 0.00525 s⁻¹ and 0.00615 s⁻¹
- koff [2]: 0.00145 s⁻¹ (2×) and 0.00148 s⁻¹
- koff ([2]; mean): 0.00146 s⁻¹
- koff [3]: 0.00121 s⁻¹ and 0.0012 s⁻¹ and 0.00122 s⁻¹
- koff ([3]; mean): 0.00121 s⁻¹
- koff [4]: 0.00239 s⁻¹ and 0.00247 s⁻¹ and 0.00254 s⁻¹
- koff ([4]; mean): 0.00247 s⁻¹
- koff [5]: 0.0103 s⁻¹ and 0.00955 s⁻¹ and 0.00937 s⁻¹
- koff ([5]; mean): 0.00974 s⁻¹
- koff [6]: 0.0025 s⁻¹ and 0.00254 s⁻¹ and 0.00241 s⁻¹ and 0.00255 s⁻¹
- koff [7]: 0.00384 s⁻¹ and 0.00414 s⁻¹ and 0.00359 s⁻¹ and 0.0038 s⁻¹
- koff [8]: 0.00171 s⁻¹ and 0.00178 s⁻¹ and 0.00164 s⁻¹
- koff [9]: 0.00336 s⁻¹ and 0.00333 s⁻¹ and 0.00344 s⁻¹ and 0.00318 s⁻¹
- koff [10]: 0.0025 s⁻¹ and 0.0024 s⁻¹ and 0.00243 s⁻¹
- koff ([10]; mean): 0.00244 s⁻¹
- koff [11]: 0.00575 s⁻¹ and 0.00678 s⁻¹ and 0.00573 s⁻¹
- koff ([11]; mean): 0.00609 s⁻¹
- koff [12]: 0.00682 s⁻¹ and 0.00595 s⁻¹ and 0.00602 s⁻¹
- koff ([12]; mean): 0.00626 s⁻¹
- koff [13]: 0.00546 s⁻¹ and 0.00506 s⁻¹ and 0.00591 s⁻¹
- koff ([13]; mean): 0.00547 s⁻¹
- koff [14]: 0.0074 s⁻¹ and 0.00639 s⁻¹ and 0.00848 s⁻¹
- koff ([14]; mean): 0.00742 s⁻¹
- koff [15]: 0.00203 s⁻¹ and 0.000861 s⁻¹ and 0.000902 s⁻¹
- koff ([15]; mean): 0.00127 s⁻¹
- koff [16]: 0.00101 s⁻¹ and 0.000958 s⁻¹ and 0.00117 s⁻¹
- koff ([16]; mean): 0.00105 s⁻¹
- koff [17]: 0.00294 s⁻¹ and 0.00337 s⁻¹ and 0.00333 s⁻¹
- koff ([17]; mean): 0.00321 s⁻¹
- koff [18]: 0.00684 s⁻¹ and 0.00682 s⁻¹ and 0.00672 s⁻¹
- koff ([18]; mean): 0.00679 s⁻¹
- koff [19]: 0.00583 s⁻¹ and 0.00632 s⁻¹ and 0.00607 s⁻¹
- koff ([19]; mean): 0.00607 s⁻¹
- koff [20]: 0.00421 s⁻¹ and 0.00438 s⁻¹ and 0.00441 s⁻¹
- koff ([20]; mean): 0.00433 s⁻¹
- koff [21]: 0.00441 s⁻¹ and 0.00438 s⁻¹ and 0.00434 s⁻¹ and 0.00453 s⁻¹
- koff [22]: 0.00811 s⁻¹ and 0.00832 s⁻¹ and 0.00795 s⁻¹ and 0.00806 s⁻¹
- koff [23]: 0.00203 s⁻¹ and 0.00225 s⁻¹ and 0.00198 s⁻¹ and 0.00185 s⁻¹
- koff [24]: 0.00395 s⁻¹ and 0.00411 s⁻¹ and 0.00394 s⁻¹ and 0.0038 s⁻¹
- koff [25]: 0.00434 s⁻¹ (2×) and 0.00424 s⁻¹
- koff ([25]; mean): 0.00431 s⁻¹
- koff [26]: 0.00693 s⁻¹ and 0.00776 s⁻¹ and 0.00549 s⁻¹ and 0.00673 s⁻¹

B2: Chinese hamster BiP^T229A-V461F (residues 28–549), lid-truncated (domain or fragment)
chain: not shown
notes: also called apo BiP oligomer; ADP BiP oligomer; source: E. coli M15, purified (as in Perera et al., 2019; anion exchange, gel filtration)
- binding result [27]: binds
